Test results taken from patent US20140087995A1 (published 2014).
Numbered stars: 1 amine (or outer) side, 2 acyl side, 3 side chain; on linkers, the order of the positions; unused ones are H or OH. Bridge positions count the residues as written; N and C are the ends. * marks the point of attachment. C20 diacid = O=C(O)CCCCCCCCCCCCCCCCCCC(=O)*; γGlu = O=C(O)[C@H](CCC(=O)[*:2])N[*:1]

T1: human calcitonin receptor (human, UniProt P30988 25-474)
T1 construct: whole, on cells; Used as cell membranes prepared from the transfected BHK cells (Assay VII), not as intact cells; also called hCTR; hCT
T1 sequence (looked up): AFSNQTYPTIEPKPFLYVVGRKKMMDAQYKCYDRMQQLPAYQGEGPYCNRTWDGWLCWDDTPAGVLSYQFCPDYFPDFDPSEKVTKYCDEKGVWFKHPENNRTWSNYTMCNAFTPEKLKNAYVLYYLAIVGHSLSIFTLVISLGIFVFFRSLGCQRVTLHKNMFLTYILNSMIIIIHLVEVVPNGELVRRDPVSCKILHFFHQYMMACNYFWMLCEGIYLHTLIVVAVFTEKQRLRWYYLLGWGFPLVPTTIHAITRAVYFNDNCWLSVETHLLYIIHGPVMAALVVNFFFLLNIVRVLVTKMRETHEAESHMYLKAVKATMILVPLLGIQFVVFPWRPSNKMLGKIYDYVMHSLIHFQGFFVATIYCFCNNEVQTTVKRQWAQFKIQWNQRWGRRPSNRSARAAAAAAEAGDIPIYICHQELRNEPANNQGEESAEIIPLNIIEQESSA

B1: N^α1 N^α1-[(4S)-4-carboxy-4-[[(4S)-4-carboxy-4-(19-carboxynonadecanoylamino)butanoyl]amino]butanoyl]-[Glu14,Arg17,Pro21,Pro27]-h-amylin (peptide)
peptide: {C20 diacid-γGlu-γGlu}-KCNTATCATQRLAEFLRHSSPNFGAIPSSTNVGSNTY-NH2
modifications: disulfide 2-7
SMILES: CC[C@H](C)[C@H](NC(=O)[C@H](C)NC(=O)CNC(=O)[C@H](Cc1ccccc1)NC(=O)[C@H](CC(N)=O)NC(=O)[C@@H]1CCCN1C(=O)[C@H](CO)NC(=O)[C@H](CO)NC(=O)[C@H](Cc1c[nH]cn1)NC(=O)[C@H](CCCNC(=N)N)NC(=O)[C@H](CC(C)C)NC(=O)[C@H](Cc1ccccc1)NC(=O)[C@H](CCC(=O)O)NC(=O)[C@H](C)NC(=O)[C@H](CC(C)C)NC(=O)[C@H](CCCNC(=N)N)NC(=O)[C@H](CCC(N)=O)NC(=O)[C@@H](NC(=O)[C@H](C)NC(=O)[C@@H]1CSSC[C@H](NC(=O)[C@H](CCCCN)NC(=O)CC[C@H](NC(=O)CC[C@H](NC(=O)CCCCCCCCCCCCCCCCCCC(=O)O)C(=O)O)C(=O)O)C(=O)N[C@@H](CC(N)=O)C(=O)N[C@@H]([C@@H](C)O)C(=O)N[C@@H](C)C(=O)N[C@@H]([C@@H](C)O)C(=O)N1)[C@@H](C)O)C(=O)N1CCC[C@H]1C(=O)N[C@@H](CO)C(=O)N[C@@H](CO)C(=O)N[C@H](C(=O)N[C@@H](CC(N)=O)C(=O)N[C@H](C(=O)NCC(=O)N[C@@H](CO)C(=O)N[C@@H](CC(N)=O)C(=O)N[C@H](C(=O)N[C@@H](Cc1ccc(O)cc1)C(N)=O)[C@@H](C)O)C(C)C)[C@@H](C)O
notes: also called compound 15
B2: N^α1-[(4S)-4-carboxy-4-(19-carboxynonadecanoylamino)butanoyl]-[Arg17,Pro21,Pro27,Arg34]-h-amylin (peptide)
peptide: KCNTATCATQRLANFLRHSSPNFGAIPSSTNVGRNTY
modifications: C20 diacid-gGlu on the alpha amino group of the N-terminal Lys1; disulfide Cys2-Cys7; C-terminal amide
notes: also called compound 39
B3: N^α1-[2-[2-[2-[[2-[2-[2-[[(4S)-4-carboxy-4-(19-carboxynonadecanoylamino)butanoyl]amino]ethoxy]ethoxy]acetyl]amino]ethoxy]ethoxy]acetyl]-[Glu14,Arg17,Pro21,Pro27 … (peptide)
peptide: KCNTATCATQRLAEFLRHSSPNFGAIPSSTNVGSNTY
modifications: C20 diacid-gGlu-2xOEG on the alpha amino group of the N-terminal Lys1; disulfide Cys2-Cys7; C-terminal amide
notes: also called compound 19
B4: N^α1-[(4S)-4-carboxy-4-(19-carboxynonadecanoylamino)butanoyl]-[Arg17,Pro21,Pro27,His34]-h-amylin (peptide)
peptide: KCNTATCATQRLANFLRHSSPNFGAIPSSTNVGHNTY
modifications: C20 diacid-gGlu on the alpha amino group of the N-terminal Lys1; disulfide Cys2-Cys7; C-terminal amide
notes: also called compound 40
B5: N^α1-[(4S)-4-carboxy-4-(19-carboxynonadecanoylamino)butanoyl]-[Arg17,Pro21,Pro27,Lys35]-h-amylin (peptide)
peptide: KCNTATCATQRLANFLRHSSPNFGAIPSSTNVGSKTY
modifications: C20 diacid-gGlu on the alpha amino group of the N-terminal Lys1; disulfide Cys2-Cys7; C-terminal amide
notes: also called compound 34

biological target: T1, human calcitonin receptor; test: SPA competition against 125I-calcitonin, membranes with human calcitonin receptor (Assay VII)
Protocol: Membranes were prepared in the following way; the cells were rinsed with PBS and incubated with Versene for approximately 5 min before harvesting. The cells were flushed with PBS and the cell-suspension was centrifuged for 5 min at 1000 rpm. Cells were homogenized (Ultrathurrax) in a buffer containing 20 mM Na-HEPES and 10 mM EDTA (pH 7.4) and centrifuged at 20.000 rpm for 15 min. The resulting pellet was resuspended, homogenized and centrifuged (20.000 rpm, 15 min) in a buffer containing 20 mM Na-HEPES and 0.1 mM EDTA (pH 7.4, buffer 2). The resulting pellet was resuspended in buffer 2 and protein concentration was measured (BCA protein Assay, Pierce). The homogenate was kept cold during the whole procedure. The membranes were kept at −80° C. until use. Assay was performed in a 384 well Optiplate (PerkinElmer) in a total volume of 40 ul. Membranes were mixed with SPA beads. Final concentration of membranes 35 ng/μL final and Final concentration of SPA beads was 0.05 mg/well. Test-compounds were dissolved in DMSO and further diluted in assay buffer (50 mM Hepes, pH 7.4, 1 mM CaCl2, 5 mM MgCl₂, 0.1% OA and 0.02% Tween20). […] The final mixture was incubated for 120 min with shaking at 400 rpm at 25° C. prior to centrifugation (1500 rpm, 10 min). Samples were analyzed on TopCounter™ (Packard). The […] was calculated using (one site binding competition analysis) GraphPad Prism5 as a measure of receptor affinity.

Question: B1 was tested. Which IC50 did it give?
Answer: 15.5 nM

Question: For B2, which IC50 is on record?
Answer: 19.3 nM

Question: With B3 as the binder, how does the IC50 read?
Answer: 20.4 nM

Question: With B4 as the binder, how does the IC50 read?
Answer: 17.1 nM

Question: How did the IC50 turn out when B5 was run?
Answer: 73.4 nM
